Results from paper PMC6358694, “Crystal structure of the WD40 domain dimer of LRRK2” (Proceedings of the National Academy of Sciences of the …, 2019).

Tests used:
[1] = target: the molecule itself; assay: SEC; gel filtration chromatography; WT serially diluted from 2 mg/mL to 0.25 mg/mL; mutants compared with WT at matched concentrations by elution position
[2] = target: the molecule itself; assay: SEC-MALS; MBP-tagged WD40 domain injected at 2 mg/mL; in-line size exclusion column, three-angle light scattering and refractive index detectors

Protein	binding result [1]	stoichiometry N [2]
LRRK2 WD40 domain mutant M2408E (domain or fragment, human, UniProt Q5S007 2142-2527, looked up, LRRK2, human, WD40 domain, residues 2142-2527, with M2408E; Probably MBP-tagged and from Sf9 as the WT; methods in the SI Appendix; source: purified proteins) RRILLPKNVIVECMVATHHNSRNASIWLGCGHTDRGQLSFLDLNTEGYTSEEVADSRILCLALVHLPVEKESWIVSGTQSGTLLVINTEDGKKRHTLEKMTDSVTCLYCNSFSKQSKQKNFLLVGTADGKLAIFEDKTVKLKGAAPLKILNIGNVSTPLMCLSESTNSTERNVMWGGCGTKIFSFSNDFTIQKLIETRTSQLFSYAAFSDSNIITVVVDTALYIAKQNSPVVEVWDKKTEKLCGLIDCVHFLREVMVKENKESKHKESYSGRVKTLCLQKNTALWIGTGGGHILLLDLSTRRLIRVIYNFCNSVRVMMTAQLGSLKNVMLVLGYNRKNTEGTQKQKEIQSCLTVWDINLPHEVQNLEKHIEVRKELAEKMRRTSVE	binds	–
MBP-tagged LRRK2 WD40 domain, wild type (domain or fragment, human, UniProt Q5S007 2142-2527, looked up, leucine-rich repeat kinase 2 (LRRK2), human, WD40 domain, residues 2142-2527; MBP-tagged monomer calculated at about 83 kDa; The tag is named for the MALS runs; also called WT WD40 domain; source: Sf9 insect cells via baculovirus infection, purified to homogeneity) RRILLPKNVIVECMVATHHNSRNASIWLGCGHTDRGQLSFLDLNTEGYTSEEVADSRILCLALVHLPVEKESWIVSGTQSGTLLVINTEDGKKRHTLEKMTDSVTCLYCNSFSKQSKQKNFLLVGTADGKLAIFEDKTVKLKGAAPLKILNIGNVSTPLMCLSESTNSTERNVMWGGCGTKIFSFSNDFTIQKLIETRTSQLFSYAAFSDSNIITVVVDTALYIAKQNSPVVEVWDKKTEKLCGLIDCVHFLREVMVKENKESKHKMSYSGRVKTLCLQKNTALWIGTGGGHILLLDLSTRRLIRVIYNFCNSVRVMMTAQLGSLKNVMLVLGYNRKNTEGTQKQKEIQSCLTVWDINLPHEVQNLEKHIEVRKELAEKMRRTSVE	–	2
LRRK2 WD40 domain PD-associated variant Y2189C (domain or fragment, human, UniProt Q5S007 2142-2527, looked up, LRRK2, human, WD40 domain, residues 2142-2527, with the PD-associated variant Y2189C; Probably MBP-tagged and from Sf9 as the WT; methods in the SI Appendix; source: purified proteins) RRILLPKNVIVECMVATHHNSRNASIWLGCGHTDRGQLSFLDLNTEGCTSEEVADSRILCLALVHLPVEKESWIVSGTQSGTLLVINTEDGKKRHTLEKMTDSVTCLYCNSFSKQSKQKNFLLVGTADGKLAIFEDKTVKLKGAAPLKILNIGNVSTPLMCLSESTNSTERNVMWGGCGTKIFSFSNDFTIQKLIETRTSQLFSYAAFSDSNIITVVVDTALYIAKQNSPVVEVWDKKTEKLCGLIDCVHFLREVMVKENKESKHKMSYSGRVKTLCLQKNTALWIGTGGGHILLLDLSTRRLIRVIYNFCNSVRVMMTAQLGSLKNVMLVLGYNRKNTEGTQKQKEIQSCLTVWDINLPHEVQNLEKHIEVRKELAEKMRRTSVE	binds	–
